In PMC7666136 (2020):

B1: eGFP-53BP1 (wild-type TP53-binding protein 1 tagged with enhanced green fluorescent protein) [not stated] / itself (parent complex)
chain: MDPTGSQLDSDFSQQDTPCLIIEDSQPESQVLEDDSGSHFSMLSRHLPNLQTHKENPVLDVVSNPEQTAGEERGDGNSGFNEHLKENKVADPVDSSNLDTCGSISQVIEQLPQPNRTSSVLGMSVESAPAVEEEKGEELEQKEKEKEEDTSGNTTHSLGAEDTASSQLGFGVLELSQSQDVEENTVPYEVDKEQLQSVTTNSGYTRLSDVDANTAIKHEEQSNEDIPIAEQSSKDIPVTAQPSKDVHVVKEQNPPPARSEDMPFSPKASVAAMEAKEQLSAQELMESGLQIQKSPEPEVLSTQEDLFDQSNKTVSSDGCSTPSREEGGCSLASTPATTLHLLQLSGQRSLVQDSLSTNSSDLVAPSPDAFRSTPFIVPSSPTEQEGRQDKPMDTSVLSEEGGEPFQKKLQSGEPVELENPPLLPESTVSPQASTPISQSTPVFPPGSLPIPSQPQFSHDIFIPSPSLEEQSNDGKKDGDMHSSSLTVECSKTSEIEPKNSPEDLGLSLTGDSCKLMLSTSEYSQSPKMESLSSHRIDEDGENTQIEDTEPMSPVLNSKFVPAENDSILMNPAQDGEVQLSQNDDKTKGDDTDTRDDISILATGCKGREETVAEDVCIDLTCDSGSQAVPSPATRSEALSSVLDQEEAMEIKEHHPEEGSSGSEVEEIPETPCESQGEELKEENMESVPLHLSLTETQSQGLCLQKEMPKKECSEAMEVETSVISIDSPQKLAILDQELEHKEQEAWEEATSEDSSVVIVDVKEPSPRVDVSCEPLEGVEKCSDSQSWEDIAPEIEPCAENRLDTKEEKSVEYEGDLKSGTAETEPVEQDSSQPSLPLVRADDPLRLDQELQQPQTQEKTSNSLTEDSKMANAKQLSSDAEAQKLGKPSAHASQSFCESSSETPFHFTLPKEGDIIPPLTGATPPLIGHLKLEPKRHSTPIGISNYPESTIATSDVMSESMVETHDPILGSGKGDSGAAPDVDDKLCLRMKLVSPETEASEESLQFNLEKPATGERKNGSTAVAESVASPQKTMSVLSCICEARQENEARSEDPPTTPIRGNLLHFPSSQGEEEKEKLEGDHTIRQSQQPMKPISPVKDPVSPASQKMVIQGPSSPQGEAMVTDVLEDQKEGRSTNKENPSKALIERPSQNNIGIQTMECSLRVPETVSAATQTIKNVCEQGTSTVDQNFGKQDATVQTERGSGEKPVSAPGDDTESLHSQGEEEFDMPQPPHGHVLHRHMRTIREVRTLVTRVITDVYYVDGTEVERKVTEETEEPIVECQECETEVSPSQTGGSSGDLGDISSFSSKASSLHRTSSGTSLSAMHSSGSSGKGAGPLRGKTSGTEPADFALPSSRGGPGKLSPRKGVSQTGTPVCEEDGDAGLGIRQGGKAPVTPRGRGRRGRPPSRTTGTRETAVPGPLGIEDISPNLSPDDKSFSRVVPRVPDSTRRTDVGAGALRRSDSPEIPFQAAAGPSDGLDASSPGNSFVGLRVVAKWSSNGYFYSGKITRDVGAGKYKLLFDDGYECDVLGKDILLCDPIPLDTEVTALSEDEYFSAGVVKGHRKESGELYYSIEKEGQRKWYKRMAVILSLEQGNRLREQYGLGPYEAVTPLTKAADISLDNLVEGKRKRRSNVSSPATPTASSSSSTTPTRKITESPRASMGVLSGKRKLITSEEERSPAKRGRKSATVKPGAVGAGEFVSPCESGDNTGEPSALEEQRGPLPLNKTLFLGYAFLLTMATTSDKLASRSKLPDGPTGSSEEEEEFLEIPPFNKQYTESQLRAGAGYILEDFNEAQCNTAYQCLLIADQHCRTRKYFLCLASGIPCVSHVWVHDSCHANQLQNYRNYLLPAGYSLEEQRILDWQPRENPFQNLKVLLVSDQQQNFLELWSEILMTGGAASVKQHHSSAHNKDIALGVFDVVVTDPSCPASVLKCAEALQLPVVSQEWVIQCLIVGERIGFKQHPKYKHDYVSH

Variants of: B1
Experiment: Number and brightness (NB) analysis of fluorescence fluctuation spectroscopy in live DIvA cells; live DIvA cell nuclei, transient transfection, N = 10 cells, two biological replicates; value is the box median; parent: 0.22; read off a plot

| screen value | Variant |
| --- | --- |
| ~0.06 fraction (pixels) | chain 1 Y1258A, chain 1 Y1259A |

Variants of: B1
Experiment: Number and brightness (NB) analysis of fluorescence fluctuation spectroscopy in live DIvA cells; single representative cell ROI; value is the top of the teal (monomer) segment of the stacked bar, the rest of the bar being dimer (green); parent: 0.79; read off a plot

| screen value | Variant |
| --- | --- |
| ~0.96 fraction (pixels) | chain 1 Y1258A, chain 1 Y1259A |
